Data: patent US20190233823 (AEROVIRUS TECHNOLOGIES INC., published 2019)

B1: APT3Cooc3 (ssDNA)
DNA: GCCTGTTGTGAGCCTCCTAACTAGCTCGTAGAAAAAAAATATAGCGTGTGCTGGGACTGCTCGGGATTGCGGACACATGCTTATTCTTGTCTCCC
B2: APT3Cooc10 (ssDNA)
DNA: GCCTGTTGTGAGCCTCCTAACGGGTATGACTACAGATGCAGGGCGGCCTGTAGCCTTGCATTGACAAGGGCATGCTTATTCTTGTCTCCC
B3: APT3Histo1 (ssDNA)
DNA: GCCTGTTGTGAGCCTCCTAACCGCACGTGGGTATTCTAAGTGCGGTAGCTCAATGGTGAGCGATGAGCATCATGCTTATTCTTGTCTCCC

Target: P97 cilium adhesin ectodomain fragment (P97 peptidic complex, SELEX target section 768-925) (Mycoplasma hyopneumoniae)
Experiment: ELONA
Details: tags: His (histidine labelled, Ni-NTA captured)
Method: Selected ssDNA molecules from each individual clone were biotinylated using the B-T3 which is same sequence with 5′ primer (T3 primer), and Klenow fragment (2 unit/ml). To prepare single stranded biotin conjugated APT3Cooc10 aptamer for the reverse screening. T3 Primer was Biotin labelled. A 96-well flat bottom ELISA plate was prepared by coating each well with 100 μl of streptavidin (100 μg/ml) diluted in 0.1 M NaHCO₃ following by a 37° C. overnight incubation. Following several washings with PBS, wells were blocked with 200 μl of PBS containing 1% BSA for 2 hours at room temperature and subsequent washing three times with PBS-T (10 mM PBS containing 0.05% (v/v) Tween-20). Thereafter, 100 μl of 2.5 pmole/100 μl biotinylated-ssDNA were added to the wells and incubated at 37° C. for 2 hours followed by washing four times with PBS-T. T3 primer was used as negative control. Following washing, 100 μl of fluid containing 2 μg histidine labelled P97 peptidic complex were added to the indicated wells and incubated at 37° C. for 2 hours. The wells were then washed for 4 times with PBS-T. The reverse screening assay was completed using the DAKO Mycoplasma Hyopneumoniae ELISA tests (K004311-9 kit, Oxoid Ltd, UK).

Row | Binder | binding result
1 | B1 | binds
2 | B2 | binds
3 | B3 | binds
